For assay [1], the target named is GIP (gastric inhibitory polypeptide) receptor (UniProt P48546). Kind of assay: cell-based or functional assay.
Assay [2] can be described thus: Calcium EC50 of mitochondrially targeted photoproteins in HEK293T cells without cotransfected GPCR or G protein (Table II). Type of assay: cell-based. To be noted: no cotransfected GPCR or G protein. The text has this:
In an exemplary experiment, HEK293T cells (ATCC-CRL-11268) were transiently co-transfected with 2 μgs of each of pcDNA3.1-H1 (containing the cDNA encoding the H1 histamine receptor) and pcDNA3.1 containing the cDNAs encoding wild type mitochondrial Clytin (referred to as mt-Clytin), modified mitochondrial Clytin having a lysine to aspartic acid mutation at position 168 (referred to as mt-Clytin K168D), modified mitochondrial Clytin having a lysine to glutamic acid mutation at position 168 (referred to as mt-Clytin K168E), wild-type mitochondrial Obelin (referred to as mt-Obelin) or wild type mitochondrial Aequorin (referred to as mt-Aequorin) using the Targefect-293 reagent (TARGETING SYSTEMS). 48 hours later, the cells were detached using Accutase (MILLIPORE), centrifuged, and resuspended in […] in FreeStyle293 media (INVITROGEN), for incubation for 3-4 hours at room temperature in the dark. After incubation, the cells were centrifuged and resuspended in HBSS/HEPES buffer without Ca^2+ at a density of 1×10^6 cells/ml. Next, 100 μl/well of cell suspension for each transfection were added by the use of a Victor2 luminometer plate reader (WALLAC, […]), to a 96-well plate containing 50 μL/well Triton X-100 in MOPS/KCl buffer containing 10 mM EGTA and a series of Ca^2+ concentrations, such that free calcium concentrations ranged from 17 nM to 39.6 μM, followed by for measurement of total bioluminescence at 20 seconds.
(§1) Signal to background ratio was calculated as the signal induced by maximal GIP (1 μM) divided by the signal induced by buffer alone. The EC50 value for calcium was determined as described above for FIG. 2 for mitochondrially targeted photoproteins transfected into HEK293T cells in the absence of a cotransfected GPCR or G protein. Affinity for calcium was correlated with the properties of the amino acid side chain at residue 168 of Clytin.

In the next assay the target is T1, GIP Receptor (Homo sapiens, UniProt P48546).
T1 construct: host or cells: HEK293T
T1 sequence (P48546 22-466): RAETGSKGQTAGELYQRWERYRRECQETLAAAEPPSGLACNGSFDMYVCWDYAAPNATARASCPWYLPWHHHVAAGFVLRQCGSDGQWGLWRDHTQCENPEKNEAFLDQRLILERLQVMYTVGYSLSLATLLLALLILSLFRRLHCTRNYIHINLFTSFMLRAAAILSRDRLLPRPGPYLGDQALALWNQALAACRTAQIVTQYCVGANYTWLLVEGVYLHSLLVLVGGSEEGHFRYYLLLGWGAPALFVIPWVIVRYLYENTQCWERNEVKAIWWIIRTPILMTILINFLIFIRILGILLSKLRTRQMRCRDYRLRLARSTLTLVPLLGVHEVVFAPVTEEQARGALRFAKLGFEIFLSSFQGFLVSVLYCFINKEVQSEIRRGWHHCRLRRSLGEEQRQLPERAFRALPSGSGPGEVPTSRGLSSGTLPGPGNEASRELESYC
The assay is described as follows: GIP receptor-mediated bioluminescence in HEK293T cells with chimeric promiscuous G protein (FIG. 5, Table II). To be noted: for Max signal with GIP (RLU × 10^−5) / EC50: HEK293T cells, GIP Receptor + promiscuous G protein; for EC50: luminescence vs GIP concentration; for % GPCR/total: signal induced by maximal GIP (1 μM) as percentage of signal induced by Triton X-100 with 1 mM Ca^2+; for Signal: background with GIP: signal induced by maximal GIP (1 μM) divided by signal induced by buffer alone. Type of assay: cell-based. How it is done:
However, coexpression of GIP receptor with a chimeric G protein containing sequences from Gαs and Gαq enable the GIP receptor to stimulate calcium flux.
The results of the dose response curve to varying concentrations of GIP with a subset of the photoproteins are summarized in FIG. 5.
as §1
The EC50 value for receptor-mediated calcium flux induced by the ligand was determined by plotting luminescence (Y-axis) versus ligand concentration applied to the cells (X-axis), and applying a sigmoidal dose-response curve-fitting algorithm (GraphPad Prism). GPCR-mediated signals of the various modified forms of Clytin having an amino acid substitution at position 168 were also related to the nature of the side chain. In addition, the subcellular location of the photoproteins (cytosolic vs mitochondrial) appeared to have an effect on GPCR-mediated signals. […] All of the other mitochondrially targeted mutants except for Clytin K168R and wild-type Clytin yielded results that were in the range of those observed for wt-Aequorin.

The source of these data is patent US20110081661A1, “Modified photoproteins with increased affinity for calcium and enhanced bioluminescence and uses thereof” (Millipore Corporation, priority 2009, published 2011).

With “GIP (gastric inhibitory polypeptide) ligand (from UniProt P09681 52-93)”, in assay [1], the EC50 for GIP (nM); receptor-mediated calcium flux luminescence in HEK293T cells, reporter Cyto-aequorin amounted to 6.67 nM; the EC50 for GIP (nM); receptor-mediated calcium flux luminescence in HEK293T cells, reporter Cyto-clytin K168D is 4.01 nM; the EC50 for GIP (nM); receptor-mediated calcium flux luminescence in HEK293T cells, reporter Cyto-clytin K168E came to 7.9 nM; the EC50 for GIP (nM); receptor-mediated calcium flux luminescence in HEK293T cells, reporter Cyto-clytin wt amounted to 9.67 nM. Also, in assay [1], the EC50 for GIP (nM); receptor-mediated calcium flux luminescence in HEK293T cells, reporter Cyto-obelin was determined as 9.86 nM; the EC50 for GIP (nM); receptor-mediated calcium flux luminescence in HEK293T cells, reporter Mt-aequorin was 11.3 nM; the EC50 for GIP (nM); receptor-mediated calcium flux luminescence in HEK293T cells, reporter Mt-clytin K168D amounted to 9.1 nM; the EC50 for GIP (nM); receptor-mediated calcium flux luminescence in HEK293T cells, reporter Mt-clytin K168E stood at 21.6 nM. Besides, in assay [1], the EC50 for GIP (nM); receptor-mediated calcium flux luminescence in HEK293T cells, reporter Mt-clytin K168G came out at 15.1 nM; the EC50 for GIP (nM); receptor-mediated calcium flux luminescence in HEK293T cells, reporter Mt-clytin K168H turned out to be 19.2 nM; the EC50 for GIP (nM); receptor-mediated calcium flux luminescence in HEK293T cells, reporter Mt-clytin K168N was 21 nM; the EC50 for GIP (nM); receptor-mediated calcium flux luminescence in HEK293T cells, reporter Mt-clytin K168Q turned out to be 17.4 nM. Besides, in assay [1], the EC50 for GIP (nM); receptor-mediated calcium flux luminescence in HEK293T cells, reporter Mt-clytin K168R was determined as 29.1 nM; the EC50 for GIP (nM); receptor-mediated calcium flux luminescence in HEK293T cells, reporter Mt-clytin K168S amounted to 15.4 nM; the EC50 for GIP (nM); receptor-mediated calcium flux luminescence in HEK293T cells, reporter Mt-clytin K168T came out at 13.4 nM; the EC50 for GIP (nM); receptor-mediated calcium flux luminescence in HEK293T cells, reporter Mt-clytin K168V turned out to be 16.8 nM. In assay [1], the EC50 for GIP (nM); receptor-mediated calcium flux luminescence in HEK293T cells, reporter Mt-clytin K168Y was 16.4 nM; the EC50 for GIP (nM); receptor-mediated calcium flux luminescence in HEK293T cells, reporter Mt-clytin wt turned out to be 12.9 nM; the EC50 for GIP (nM); receptor-mediated calcium flux luminescence in HEK293T cells, reporter Mt-obelin worked out at 13.7 nM.

B1: Mt-clytin K168Q: Mitochondrial K168Q modified Clytin, SEQ ID NO:20 (protein)
chain: MSVLTPLLLRGLTGSARRLPVPRAKIHSLPPEGKLRPNFDNPKWVNRHKFMFNFLDINGDGKITLDEIVSKASDDICAKLGATPEQTKRHQDAVEAFFKKIGMDYGKEVEFPAFVDGWKELANYDLKLWSQNKKSLIRDWGEAVFDIFDKDGSGSISLDEWKAYGRISGICSSDEDAEKTFKHCDLDNSGQLDVDEMTRQHLGFWYTLDPNADGLYGNFVP
On to B1, for which, in assay [2], the concentration for a half-maximal effect (EC50) turned out to be 335 nM. For the same molecule, in the assay with GIP Receptor, the “Max signal with GIP (RLU × 10^−5)” value came out at 4.78 RLU × 10^−5, the EC50 turned out to be 17.4 nM, the “% GPCR/total” value was 14.2% and the “Signal: background with GIP” value is 125.8.

B2: Mt-clytin K168Y: Mitochondrial K168Y modified Clytin, SEQ ID NO:28 (protein)
chain: MSVLTPLLLRGLTGSARRLPVPRAKIHSLPPEGKLRPNFDNPKWVNRHKFMFNFLDINGDGKITLDEIVSKASDDICAKLGATPEQTKRHQDAVEAFFKKIGMDYGKEVEFPAFVDGWKELANYDLKLWSQNKKSLIRDWGEAVFDIFDKDGSGSISLDEWKAYGRISGICSSDEDAEKTFKHCDLDNSGYLDVDEMTRQHLGFWYTLDPNADGLYGNFVP
On to B2, for which the 50% effective concentration (EC50) in assay [2] was 284 nM. In the assay with GIP Receptor, the “Max signal with GIP (RLU × 10^−5)” value was determined as 2.89 RLU × 10^−5, the EC50 came to 16.4 nM, the “% GPCR/total” value was determined as 18.5% and the “Signal: background with GIP” value is on record as 112.8.

B3: Mt-clytin K168V: Mitochondrial K168V modified Clytin, SEQ ID NO:26 (protein)
chain: MSVLTPLLLRGLTGSARRLPVPRAKIHSLPPEGKLRPNFDNPKWVNRHKFMFNFLDINGDGKITLDEIVSKASDDICAKLGATPEQTKRHQDAVEAFFKKIGMDYGKEVEFPAFVDGWKELANYDLKLWSQNKKSLIRDWGEAVFDIFDKDGSGSISLDEWKAYGRISGICSSDEDAEKTFKHCDLDNSGVLDVDEMTRQHLGFWYTLDPNADGLYGNFVP
On to B3, for which the half-maximal effective concentration (EC50) in assay [2] was determined as 389 nM. For the same molecule, in the assay with GIP Receptor, the “Max signal with GIP (RLU × 10^−5)” value turned out to be 3.60 RLU × 10^−5, the EC50 was determined as 16.8 nM, the “% GPCR/total” value was 18.5% and the “Signal: background with GIP” value worked out at 158.0.

B4: Mt-clytin K168R: Mitochondrial K168R modified Clytin, SEQ ID NO:30 (protein)
chain: MSVLTPLLLRGLTGSARRLPVPRAKIHSLPPEGKLRPNFDNPKWVNRHKFMFNFLDINGDGKITLDEIVSKASDDICAKLGATPEQTKRHQDAVEAFFKKIGMDYGKEVEFPAFVDGWKELANYDLKLWSQNKKSLIRDWGEAVFDIFDKDGSGSISLDEWKAYGRISGICSSDEDAEKTFKHCDLDNSGRLDVDEMTRQHLGFWYTLDPNADGLYGNFVP
Turning to B4, the EC50 in assay [2] came out at 581 nM. In the assay with GIP Receptor, the “Max signal with GIP (RLU × 10^−5)” value turned out to be 1.89 RLU × 10^−5, the EC50 came out at 29.1 nM, the “% GPCR/total” value was found to be 3.3% and the “Signal: background with GIP” value is recorded as 86.8.

B5: Mt-clytin K168H: Mitochondrial K168H modified Clytin, SEQ ID NO:14 (protein)
chain: MSVLTPLLLRGLTGSARRLPVPRAKIHSLPPEGKLRPNFDNPKWVNRHKFMFNFLDINGDGKITLDEIVSKASDDICAKLGATPEQTKRHQDAVEAFFKKIGMDYGKEVEFPAFVDGWKELANYDLKLWSQNKKSLIRDWGEAVFDIFDKDGSGSISLDEWKAYGRISGICSSDEDAEKTFKHCDLDNSGHLDVDEMTRQHLGFWYTLDPNADGLYGNFVP
Turning to B5, in assay [2], the EC50 turned out to be 459 nM. In addition, in the assay with GIP Receptor, the “Max signal with GIP (RLU × 10^−5)” value turned out to be 4.98 RLU × 10^−5, the EC50 was 19.2 nM, the “% GPCR/total” value stood at 14.9% and the “Signal: background with GIP” value was determined as 148.3.

B6: Mt-obelin: Mitochondrial Wild-type Obelin (mt-Obelin), SEQ ID NO:7 (protein, listed as Obelia longissima)
chain: MSVLTPLLLRGLTGSARRLPVPRAKIHSLPPEGKLMSSKYAVKLKTDFDNPRWIKRHKHMFDFLDINGNGKITLDEIVSKASDDICAKLEATPEQTKRHQVCVEAFFRGCGMEYGKEIAFPQFLDGWKQLATSELKKWARNEPTLIREWGDAVFDIFDKDGSGTITLDEWKAYGKISGISPSQEDCEATFRHCDLDNSGDLDVDEMTRQHLGFWYTLDPEADGLYGNGVP
Regarding B6, the half-maximal effective concentration (EC50) in assay [2] stood at 373 nM. For the same molecule, in the assay with GIP Receptor, the “Max signal with GIP (RLU × 10^−5)” value amounted to 3.66 RLU × 10^−5, the EC50 is 13.7 nM, the “% GPCR/total” value amounted to 116% and the “Signal: background with GIP” value stood at 172.5.
